Results published in paper PMC6251712 (Archives of biochemistry and biophysics, 2018).
Positions count from the first letter of the chain named. Non-standard residues stand in square brackets, D forms with d. No end group written: not given here. FAM = fluorescent label on the peptide N-terminus (FAM, not expanded in the evidence); pY = N[C@@H](Cc1ccc(OP(=O)(O)O)cc1)C(=O)O

Key:
[1] = target: FAM-labeled c-MET peptide (1353-1360) with Y1356 phosphorylated, FAM-N-A-T-pY-V-N-V-K; assay: fluorescence polarisation
[2] = target: SHIP2 SH2 domain (SHIP2-SH2), wild type (human) (UniProt O15357); assay: NMR titration
[3] = target: T1, SHIP2-SH2 E50A (human, UniProt O15357 20-117, E50A); assay: fluorescence polarisation
T1 sequence (looked up): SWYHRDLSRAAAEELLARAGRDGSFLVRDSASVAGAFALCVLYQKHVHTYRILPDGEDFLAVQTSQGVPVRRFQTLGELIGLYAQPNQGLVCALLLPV

[4] = target: T2, SHIP2-SH2 Q82A (human, UniProt O15357 20-117, Q82A); assay: fluorescence polarisation
T2 sequence (looked up): T1 sequence (looked up) with A31E, Q63A

[5] = target: T3, SHIP2-SH2 R28A (human, UniProt O15357 20-117, R28A); assay: fluorescence polarisation
T3 sequence (looked up): T1 sequence (looked up) with R9A, A31E

[6] = target: T4, SHIP2-SH2 S27A (human, UniProt O15357 20-117, S27A); assay: fluorescence polarisation
T4 sequence (looked up): T1 sequence (looked up) with S8A, A31E

[7] = target: T5, SHIP2-SH2 R70A (human, UniProt O15357 20-117, R70A); assay: fluorescence polarisation
T5 sequence (looked up): T1 sequence (looked up) with A31E, R51A

[8] = target: T6, SHIP2-SH2 D48A (human, UniProt O15357 20-117, D48A); assay: fluorescence polarisation
T6 sequence (looked up): T1 sequence (looked up) with D29A, A31E

[9] = target: T7, SHIP2-SH2 S49A (human, UniProt O15357 20-117, S49A); assay: fluorescence polarisation
T7 sequence (looked up): T1 sequence (looked up) with S30A, A31E

[10] = target: T8, SHIP2-SH2 S84A (human, UniProt O15357 20-117, S84A); assay: fluorescence polarisation
T8 sequence (looked up): T1 sequence (looked up) with A31E, S65A

SHIP2 SH2 domain (SHIP2-SH2), wild type (from UniProt O15357 20-117) (domain or fragment)
Kd [1]: 7.4 µM

Y1356-phosphorylated c-MET peptide (1353-1360), N-A-T-pY-V-N-V-K, unlabeled
Kd [2]: 16.5 µM

{FAM}-NAT[pY]VNVK [FAM-labeled c-MET peptide (1353-1360) with Y1356 phosphorylated, FAM-N-A-T-pY-V-N-V-K]
Kd [3]: 3.2 ± 0.1 µM | Kd [4]: 7.5 ± 0.3 µM | Kd [5]: 24.7 ± 1 µM | Kd [6]: 7.3 ± 0.3 µM | Kd [7]: 239 ± 12.1 µM | Kd [8]: 5.5 ± 0.2 µM | Kd [9]: 134 ± 5.6 µM | Kd [10]: 6.4 ± 0.2 µM
